According to paper doi:10.1101/2022.02.13.480273:

Target: GST-RABL2^S37N (Chlamydomonas reinhardtii)
Assay: SEC

B1: ARL3^T30N (bacterially expressed) (natural protein)
chain: MGLLSLIRGLKKKEGEARILVLGLDNAGKNTILKALSEEDITTITPTQGFNIKSLSRDGFNLKIWDIGGQKSIRPYWRNYFDQTDALIYVIDSADSKRLSESEFELTELLQEEKMTGVPLLVFANKQDLVGALAADEIASTLDLTSIRDRPWQIQACSAKQGTGLKEGMEWMMKQVK
  stoichiometry N: 1
